Results from patent US20230002480A1.

What was measured:
Assay in all cases: cell-based or functional assay
[1] = biological target: HIV-1 Env of pseudovirus 1054_07_TC4_1499 (HIV-1)
[2] = biological target: HIV-1 Env of pseudovirus 246F C1G (HIV-1)
[3] = biological target: HIV-1 Env of pseudovirus 6240_08_TA5_4622 (HIV-1)
[4] = biological target: HIV-1 Env of pseudovirus 6535.3 (HIV-1)
[5] = biological target: HIV-1 Env of pseudovirus AC10.0.29 (HIV-1)
[6] = biological target: HIV-1 Env of pseudovirus CAAN5342.A2 (HIV-1)
[7] = biological target: HIV-1 Env of pseudovirus CAP45.2.00.G3 (HIV-1)
[8] = biological target: HIV-1 Env of pseudovirus CNE20 (HIV-1)
[9] = biological target: HIV-1 Env of pseudovirus CNE52 (HIV-1)
[10] = biological target: HIV-1 Env of pseudovirus CNE53 (HIV-1)
[11] = biological target: HIV-1 Env of pseudovirus Ce1172_H1 (HIV-1)
[12] = biological target: HIV-1 Env of pseudovirus Ce703010054_2A2 (HIV-1)
[13] = biological target: HIV-1 Env of pseudovirus Ce704809221_1B3 (HIV-1)
[14] = biological target: HIV-1 Env of pseudovirus Du156.12 (HIV-1)
[15] = biological target: HIV-1 Env of pseudovirus HIV-0013095-2.11 (HIV-1)
[16] = biological target: HIV-1 Env of pseudovirus MS208.A1 (HIV-1)
[17] = biological target: HIV-1 Env of pseudovirus PVO.4 (HIV-1)
[18] = biological target: HIV-1 Env of pseudovirus Q259.d2.17 (HIV-1)
[19] = biological target: HIV-1 Env of pseudovirus Q461.e2 (HIV-1)
[20] = biological target: HIV-1 Env of pseudovirus RHPA4259.7 (HIV-1)
[21] = biological target: HIV-1 Env of pseudovirus WEAU_d15_410_787 (HIV-1)
[22] = biological target: HIV-1 Env of pseudovirus ZM135M.PL10a (HIV-1)
[23] = biological target: HIV-1 Env of pseudovirus ZM233M.PB6 (HIV-1)
[24] = biological target: HIV-1 Env of pseudovirus ZM247v1(Rev-) (HIV-1)

N49P9.1 (antibody) gave an IC50 [1] of 1.8 µg/mL, an IC80 [1] of 7.2 µg/mL and an MPI [1] of 100. It also gave an IC50 [2] greater than 50 µg/mL, an IC80 [2] greater than 50 µg/mL and an MPI [2] of 11. The IC50 [3] was 0.716 µg/mL, the IC80 [3] was 2.55 µg/mL and the MPI [3] was 100. The IC50 [4] was 0.232 µg/mL, the IC80 [4] was 2.06 µg/mL and the MPI [4] was 100. For the same substance, the IC50 [5] was 0.36 µg/mL, the IC80 [5] was 1.88 µg/mL and the MPI [5] was 99. It also gave an IC50 [6] of 2.16 µg/mL, an IC80 [6] of 8 µg/mL and an MPI [6] of 99. For the same substance, the IC50 [7] was 1.72 µg/mL, the IC80 [7] was 19.6 µg/mL and the MPI [7] was 88. For the same substance, the IC50 [8] was 1.51 µg/mL, the IC80 [8] was 16.4 µg/mL and the MPI [8] was 90. For the same substance, the IC50 [9] was 0.043 µg/mL, the IC80 [9] was 0.122 µg/mL and the MPI [9] was 100. The IC50 [10] was 0.14 µg/mL, the IC80 [10] was 0.647 µg/mL and the MPI [10] was 99. The IC50 [11] was greater than 50 µg/mL, the IC80 [11] was greater than 50 µg/mL and the MPI [11] was 42. For the same substance, the IC50 [12] was 0.433 µg/mL, the IC80 [12] was 3.18 µg/mL and the MPI [12] was 96. The IC50 [13] was 0.162 µg/mL, the IC80 [13] was 0.661 µg/mL and the MPI [13] was 100. For the same substance, the IC50 [14] was 0.066 µg/mL, the IC80 [14] was 0.252 µg/mL and the MPI [14] was 100. It also gave an IC50 [15] of 0.358 µg/mL, an IC80 [15] of 1.26 µg/mL and an MPI [15] of 100. The IC50 [16] was 0.082 µg/mL, the IC80 [16] was 0.248 µg/mL and the MPI [16] was 100. For the same substance, the IC50 [17] was 0.181 µg/mL, the IC80 [17] was 0.874 µg/mL and the MPI [17] was 100. The IC50 [18] was greater than 50 µg/mL, the IC80 [18] was greater than 50 µg/mL and the MPI [18] was 48. The IC50 [19] was 0.363 µg/mL, the IC80 [19] was 1.15 µg/mL and the MPI [19] was 100. The IC50 [20] was 0.021 µg/mL, the IC80 [20] was 0.066 µg/mL and the MPI [20] was 100. For the same substance, the IC50 [21] was 0.068 µg/mL, the IC80 [21] was 0.253 µg/mL and the MPI [21] was 100. For the same substance, the IC50 [22] was 0.332 µg/mL, the IC80 [22] was 1.53 µg/mL and the MPI [22] was 98. The IC50 [23] was greater than 50 µg/mL, the IC80 [23] was greater than 50 µg/mL and the MPI [23] was 6. The IC50 [24] was 1.88 µg/mL, the IC80 [24] was 17.8 µg/mL and the MPI [24] was 87.
N49P19 (antibody) showed an IC50 [1] of 2.85 µg/mL, an IC80 [1] of 11.7 µg/mL and an MPI [1] of 99. The IC50 [2] was greater than 50 µg/mL, the IC80 [2] was greater than 50 µg/mL and the MPI [2] was 19. It also gave an IC50 [3] of 2.1 µg/mL, an IC80 [3] of 7.52 µg/mL and an MPI [3] of 100. The IC50 [4] was 9.09 µg/mL, the IC80 [4] was 28.3 µg/mL and the MPI [4] was 95. For the same substance, the IC50 [5] was greater than 50 µg/mL, the IC80 [5] was greater than 50 µg/mL and the MPI [5] was 13. For the same substance, the IC50 [6] was 1.24 µg/mL, the IC80 [6] was 4.4 µg/mL and the MPI [6] was 100. The IC50 [7] was greater than 50 µg/mL, the IC80 [7] was greater than 50 µg/mL and the MPI [7] was 5. The IC50 [8] was 0.124 µg/mL, the IC80 [8] was 0.817 µg/mL and the MPI [8] was 99. It also gave an IC50 [9] of 0.175 µg/mL, an IC80 [9] of 0.491 µg/mL and an MPI [9] of 100. The IC50 [10] was 1.5 µg/mL, the IC80 [10] was greater than 50 µg/mL and the MPI [10] was 78. It also gave an IC50 [11] greater than 50 µg/mL, an IC80 [11] greater than 50 µg/mL and an MPI [11] of 3. The IC50 [12] was greater than 50 µg/mL, the IC80 [12] was greater than 50 µg/mL and the MPI [12] was 0. For the same substance, the IC50 [13] was 3.75 µg/mL, the IC80 [13] was 19.2 µg/mL and the MPI [13] was 93. It also gave an IC50 [14] of 2.17 µg/mL, an IC80 [14] of 17 µg/mL and an MPI [14] of 87. For the same substance, the IC50 [15] was greater than 50 µg/mL, the IC80 [15] was greater than 50 µg/mL and the MPI [15] was 18. The IC50 [16] was 0.501 µg/mL, the IC80 [16] was 1.99 µg/mL and the MPI [16] was 99. For the same substance, the IC50 [17] was 0.85 µg/mL, the IC80 [17] was 2.95 µg/mL and the MPI [17] was 100. For the same substance, the IC50 [18] was greater than 50 µg/mL, the IC80 [18] was greater than 50 µg/mL and the MPI [18] was 11. For the same substance, the IC50 [19] was 0.774 µg/mL, the IC80 [19] was 4.05 µg/mL and the MPI [19] was 100. For the same substance, the IC50 [20] was greater than 50 µg/mL, the IC80 [20] was greater than 50 µg/mL and the MPI [20] was 42. It also gave an IC50 [21] of 0.177 µg/mL, an IC80 [21] of 0.612 µg/mL and an MPI [21] of 100. For the same substance, the IC50 [22] was greater than 50 µg/mL, the IC80 [22] was greater than 50 µg/mL and the MPI [22] was 0. The IC50 [23] was greater than 50 µg/mL, the IC80 [23] was greater than 50 µg/mL and the MPI [23] was 4. It also gave an IC50 [24] greater than 50 µg/mL, an IC80 [24] greater than 50 µg/mL and an MPI [24] of 5.
